Measurements from patent US20180155406A1 (Sanofi, published 2018).
Numbered stars: 1 amine (or outer) side, 2 acyl side, 3 side chain; on linkers, the order of the positions; unused ones are H or OH. Square brackets hold non-standard residues; d marks the D form. Side chains are listed from the residue outwards. Ends that are not written are not given here. * marks the point of attachment. γGlu = O=C(O)[C@H](CCC(=O)[*:2])N[*:1]; Stearoyl = CCCCCCCCCCCCCCCCCC(=O)*; Palmitoyl = CCCCCCCCCCCCCCCC(=O)*; gAAA = not defined here; AEEA = NCCOCCOCC(=O)O; Aib = CC(C)(N)C(=O)O

T1: human GIP receptor (human, UniProt P48546 22-466)
T1 sequence (looked up): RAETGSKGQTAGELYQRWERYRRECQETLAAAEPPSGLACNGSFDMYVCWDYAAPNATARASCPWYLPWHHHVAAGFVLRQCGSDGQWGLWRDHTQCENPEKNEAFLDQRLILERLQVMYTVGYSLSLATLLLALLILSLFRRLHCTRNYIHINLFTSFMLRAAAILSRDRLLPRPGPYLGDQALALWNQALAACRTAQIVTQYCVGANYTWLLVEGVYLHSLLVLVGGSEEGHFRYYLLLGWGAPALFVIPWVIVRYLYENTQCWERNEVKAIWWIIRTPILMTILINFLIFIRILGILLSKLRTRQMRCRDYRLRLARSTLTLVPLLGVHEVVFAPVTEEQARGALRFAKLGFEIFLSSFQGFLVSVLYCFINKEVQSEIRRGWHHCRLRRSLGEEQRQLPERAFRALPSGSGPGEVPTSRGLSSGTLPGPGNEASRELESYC


How the values were obtained:
Assay in all cases: cell-based or functional assay
human GLP-1 receptor = human GLP-1 receptor (human, UniProt P43220 24-463)
human glucagon receptor = human glucagon receptor (human, UniProt P47871 26-477)
human GIP receptor = molecular target: T1, human GIP receptor

human glucagon receptor, sequence (P47871 26-477): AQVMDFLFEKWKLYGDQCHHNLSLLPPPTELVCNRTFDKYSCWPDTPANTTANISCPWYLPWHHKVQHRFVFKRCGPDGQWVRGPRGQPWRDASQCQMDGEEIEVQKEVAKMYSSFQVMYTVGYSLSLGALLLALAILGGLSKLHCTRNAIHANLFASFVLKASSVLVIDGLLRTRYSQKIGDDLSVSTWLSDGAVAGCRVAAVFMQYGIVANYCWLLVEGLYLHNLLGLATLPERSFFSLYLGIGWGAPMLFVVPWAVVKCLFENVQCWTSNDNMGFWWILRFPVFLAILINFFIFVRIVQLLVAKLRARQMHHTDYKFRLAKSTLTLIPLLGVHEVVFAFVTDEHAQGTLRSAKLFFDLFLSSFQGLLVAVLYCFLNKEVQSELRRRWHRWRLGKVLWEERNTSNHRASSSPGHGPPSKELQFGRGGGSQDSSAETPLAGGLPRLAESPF

Binder	EC50 hGLP-1R (cAMP formation) (human GLP-1 receptor) [pM]	EC50 hGlucagon R (cAMP formation) (human glucagon receptor) [pM]	EC50 hGIP R (cAMP formation) (human GIP receptor) [pM]
H[Aib]HGTFTSDLSKLK([γGlu-Palmitoyl])EEQRQ[Aib]EFIEWLKAGGPPS[Aib]KPPPK-NH2 (N-terminus assumed; SMILES CCCCCCCCCCCCCCCC(=O)N[C@@H](CCC(=O)NCCCC[C@H](NC(=O)[C@H](CC(C)C)NC(=O)[C@H](CCCCN)NC(=O)[C@H](CO)NC(=O)[C@H](CC(C)C)NC(=O)[C@H](CC(=O)O)NC(=O)[C@H](CO)NC(=O)[C@@H](NC(=O)[C@H](Cc1ccccc1)NC(=O)[C@@H](NC(=O)CNC(=O)[C@H](Cc1c[nH]cn1)NC(=O)C(C)(C)NC(=O)[C@@H](N)Cc1c[nH]cn1)[C@@H](C)O)[C@@H](C)O)C(=O)N[C@@H](CCC(=O)O)C(=O)N[C@@H](CCC(=O)O)C(=O)N[C@@H](CCC(N)=O)C(=O)N[C@@H](CCCNC(=N)N)C(=O)N[C@@H](CCC(N)=O)C(=O)NC(C)(C)C(=O)N[C@@H](CCC(=O)O)C(=O)N[C@@H](Cc1ccccc1)C(=O)N[C@H](C(=O)N[C@@H](CCC(=O)O)C(=O)N[C@@H](Cc1c[nH]c2ccccc12)C(=O)N[C@@H](CC(C)C)C(=O)N[C@@H](CCCCN)C(=O)N[C@@H](C)C(=O)NCC(=O)NCC(=O)N1CCC[C@H]1C(=O)N1CCC[C@H]1C(=O)N[C@@H](CO)C(=O)NC(C)(C)C(=O)N[C@@H](CCCCN)C(=O)N1CCC[C@H]1C(=O)N1CCC[C@H]1C(=O)N1CCC[C@H]1C(=O)N[C@@H](CCCCN)C(N)=O)[C@@H](C)CC)C(=O)O) [SEQ ID NO: 18]	5.3	2.8	2
H[Aib]HGTFTSDLSKLK([γGlu-Palmitoyl])EEQRQKEFIEWLKAGGPPS[Aib]KPPPK-NH2 (N-terminus assumed; SMILES CCCCCCCCCCCCCCCC(=O)N[C@@H](CCC(=O)NCCCC[C@H](NC(=O)[C@H](CC(C)C)NC(=O)[C@H](CCCCN)NC(=O)[C@H](CO)NC(=O)[C@H](CC(C)C)NC(=O)[C@H](CC(=O)O)NC(=O)[C@H](CO)NC(=O)[C@@H](NC(=O)[C@H](Cc1ccccc1)NC(=O)[C@@H](NC(=O)CNC(=O)[C@H](Cc1c[nH]cn1)NC(=O)C(C)(C)NC(=O)[C@@H](N)Cc1c[nH]cn1)[C@@H](C)O)[C@@H](C)O)C(=O)N[C@@H](CCC(=O)O)C(=O)N[C@@H](CCC(=O)O)C(=O)N[C@@H](CCC(N)=O)C(=O)N[C@@H](CCCNC(=N)N)C(=O)N[C@@H](CCC(N)=O)C(=O)N[C@@H](CCCCN)C(=O)N[C@@H](CCC(=O)O)C(=O)N[C@@H](Cc1ccccc1)C(=O)N[C@H](C(=O)N[C@@H](CCC(=O)O)C(=O)N[C@@H](Cc1c[nH]c2ccccc12)C(=O)N[C@@H](CC(C)C)C(=O)N[C@@H](CCCCN)C(=O)N[C@@H](C)C(=O)NCC(=O)NCC(=O)N1CCC[C@H]1C(=O)N1CCC[C@H]1C(=O)N[C@@H](CO)C(=O)NC(C)(C)C(=O)N[C@@H](CCCCN)C(=O)N1CCC[C@H]1C(=O)N1CCC[C@H]1C(=O)N1CCC[C@H]1C(=O)N[C@@H](CCCCN)C(N)=O)[C@@H](C)CC)C(=O)O) [SEQ ID NO: 20]	4.8	4.2	1.9
H[Aib]HGTFTSDLSKLK([γGlu-Stearoyl])EEQRQ[Aib]EFIEWLKA[dA]GPPS[Aib]KPPPK-NH2 (N-terminus assumed; SMILES CCCCCCCCCCCCCCCCCC(=O)N[C@@H](CCC(=O)NCCCC[C@H](NC(=O)[C@H](CC(C)C)NC(=O)[C@H](CCCCN)NC(=O)[C@H](CO)NC(=O)[C@H](CC(C)C)NC(=O)[C@H](CC(=O)O)NC(=O)[C@H](CO)NC(=O)[C@@H](NC(=O)[C@H](Cc1ccccc1)NC(=O)[C@@H](NC(=O)CNC(=O)[C@H](Cc1c[nH]cn1)NC(=O)C(C)(C)NC(=O)[C@@H](N)Cc1c[nH]cn1)[C@@H](C)O)[C@@H](C)O)C(=O)N[C@@H](CCC(=O)O)C(=O)N[C@@H](CCC(=O)O)C(=O)N[C@@H](CCC(N)=O)C(=O)N[C@@H](CCCNC(=N)N)C(=O)N[C@@H](CCC(N)=O)C(=O)NC(C)(C)C(=O)N[C@@H](CCC(=O)O)C(=O)N[C@@H](Cc1ccccc1)C(=O)N[C@H](C(=O)N[C@@H](CCC(=O)O)C(=O)N[C@@H](Cc1c[nH]c2ccccc12)C(=O)N[C@@H](CC(C)C)C(=O)N[C@@H](CCCCN)C(=O)N[C@@H](C)C(=O)N[C@H](C)C(=O)NCC(=O)N1CCC[C@H]1C(=O)N1CCC[C@H]1C(=O)N[C@@H](CO)C(=O)NC(C)(C)C(=O)N[C@@H](CCCCN)C(=O)N1CCC[C@H]1C(=O)N1CCC[C@H]1C(=O)N1CCC[C@H]1C(=O)N[C@@H](CCCCN)C(N)=O)[C@@H](C)CC)C(=O)O) [SEQ ID NO: 17]	6.4	5.3	7.3
H[Aib]HGTFTSDLSKLK([γGlu-Stearoyl])EEQRQKEFIEWLKAGGPPS[Aib]KPPPK-NH2 (N-terminus assumed; SMILES CCCCCCCCCCCCCCCCCC(=O)N[C@@H](CCC(=O)NCCCC[C@H](NC(=O)[C@H](CC(C)C)NC(=O)[C@H](CCCCN)NC(=O)[C@H](CO)NC(=O)[C@H](CC(C)C)NC(=O)[C@H](CC(=O)O)NC(=O)[C@H](CO)NC(=O)[C@@H](NC(=O)[C@H](Cc1ccccc1)NC(=O)[C@@H](NC(=O)CNC(=O)[C@H](Cc1c[nH]cn1)NC(=O)C(C)(C)NC(=O)[C@@H](N)Cc1c[nH]cn1)[C@@H](C)O)[C@@H](C)O)C(=O)N[C@@H](CCC(=O)O)C(=O)N[C@@H](CCC(=O)O)C(=O)N[C@@H](CCC(N)=O)C(=O)N[C@@H](CCCNC(=N)N)C(=O)N[C@@H](CCC(N)=O)C(=O)N[C@@H](CCCCN)C(=O)N[C@@H](CCC(=O)O)C(=O)N[C@@H](Cc1ccccc1)C(=O)N[C@H](C(=O)N[C@@H](CCC(=O)O)C(=O)N[C@@H](Cc1c[nH]c2ccccc12)C(=O)N[C@@H](CC(C)C)C(=O)N[C@@H](CCCCN)C(=O)N[C@@H](C)C(=O)NCC(=O)NCC(=O)N1CCC[C@H]1C(=O)N1CCC[C@H]1C(=O)N[C@@H](CO)C(=O)NC(C)(C)C(=O)N[C@@H](CCCCN)C(=O)N1CCC[C@H]1C(=O)N1CCC[C@H]1C(=O)N1CCC[C@H]1C(=O)N[C@@H](CCCCN)C(N)=O)[C@@H](C)CC)C(=O)O) [SEQ ID NO: 21]	3.4	1.9	2.6
H[Aib]HGTFTSDLSKLK([γGlu-AEEA-gAAA-Palmitoyl])EEQRQKEFIEWLKAGGHPS[Aib]KPPPK-NH2 (reading uncertain) [SEQ ID NO: 22]	1	5.9	1.1
H[Aib]HGTFTSDLSKLK([γGlu-Stearoyl])EEQRQ[Aib]EFIEWLKAGGPPS[Aib]KPPPK-NH2 (N-terminus assumed; SMILES CCCCCCCCCCCCCCCCCC(=O)N[C@@H](CCC(=O)NCCCC[C@H](NC(=O)[C@H](CC(C)C)NC(=O)[C@H](CCCCN)NC(=O)[C@H](CO)NC(=O)[C@H](CC(C)C)NC(=O)[C@H](CC(=O)O)NC(=O)[C@H](CO)NC(=O)[C@@H](NC(=O)[C@H](Cc1ccccc1)NC(=O)[C@@H](NC(=O)CNC(=O)[C@H](Cc1c[nH]cn1)NC(=O)C(C)(C)NC(=O)[C@@H](N)Cc1c[nH]cn1)[C@@H](C)O)[C@@H](C)O)C(=O)N[C@@H](CCC(=O)O)C(=O)N[C@@H](CCC(=O)O)C(=O)N[C@@H](CCC(N)=O)C(=O)N[C@@H](CCCNC(=N)N)C(=O)N[C@@H](CCC(N)=O)C(=O)NC(C)(C)C(=O)N[C@@H](CCC(=O)O)C(=O)N[C@@H](Cc1ccccc1)C(=O)N[C@H](C(=O)N[C@@H](CCC(=O)O)C(=O)N[C@@H](Cc1c[nH]c2ccccc12)C(=O)N[C@@H](CC(C)C)C(=O)N[C@@H](CCCCN)C(=O)N[C@@H](C)C(=O)NCC(=O)NCC(=O)N1CCC[C@H]1C(=O)N1CCC[C@H]1C(=O)N[C@@H](CO)C(=O)NC(C)(C)C(=O)N[C@@H](CCCCN)C(=O)N1CCC[C@H]1C(=O)N1CCC[C@H]1C(=O)N1CCC[C@H]1C(=O)N[C@@H](CCCCN)C(N)=O)[C@@H](C)CC)C(=O)O) [SEQ ID NO: 19]	6.1	3.1	4
H[Aib]HGTFTSDLSKLK([γGlu-γGlu-Palmitoyl])EEQRQKEFIEWLKAGGHPS[Aib]KPPPK-NH2 (N-terminus assumed; SMILES CCCCCCCCCCCCCCCC(=O)N[C@@H](CCC(=O)N[C@@H](CCC(=O)NCCCC[C@H](NC(=O)[C@H](CC(C)C)NC(=O)[C@H](CCCCN)NC(=O)[C@H](CO)NC(=O)[C@H](CC(C)C)NC(=O)[C@H](CC(=O)O)NC(=O)[C@H](CO)NC(=O)[C@@H](NC(=O)[C@H](Cc1ccccc1)NC(=O)[C@@H](NC(=O)CNC(=O)[C@H](Cc1c[nH]cn1)NC(=O)C(C)(C)NC(=O)[C@@H](N)Cc1c[nH]cn1)[C@@H](C)O)[C@@H](C)O)C(=O)N[C@@H](CCC(=O)O)C(=O)N[C@@H](CCC(=O)O)C(=O)N[C@@H](CCC(N)=O)C(=O)N[C@@H](CCCNC(=N)N)C(=O)N[C@@H](CCC(N)=O)C(=O)N[C@@H](CCCCN)C(=O)N[C@@H](CCC(=O)O)C(=O)N[C@@H](Cc1ccccc1)C(=O)N[C@H](C(=O)N[C@@H](CCC(=O)O)C(=O)N[C@@H](Cc1c[nH]c2ccccc12)C(=O)N[C@@H](CC(C)C)C(=O)N[C@@H](CCCCN)C(=O)N[C@@H](C)C(=O)NCC(=O)NCC(=O)N[C@@H](Cc1c[nH]cn1)C(=O)N1CCC[C@H]1C(=O)N[C@@H](CO)C(=O)NC(C)(C)C(=O)N[C@@H](CCCCN)C(=O)N1CCC[C@H]1C(=O)N1CCC[C@H]1C(=O)N1CCC[C@H]1C(=O)N[C@@H](CCCCN)C(N)=O)[C@@H](C)CC)C(=O)O)C(=O)O) [SEQ ID NO: 6]	1.4	2.3	2.1
